Here are results for 84 variants from the RNAGym collection of RNA variant scans (doi:10.1073/pnas.2313332121).

This sample holds only a part of the variants without activity.

The chains are these.
B1: TPR 5TU (parent)
chain: GGAUCUUCUCGAUCUAACAAAAAAGACAAAUCUGCCACAAAGCUUGAGAGCAUCUUCGGAUGCAGAGGCGGCAGCCUUCGGUGGCGCGAUAGCGCCAACGUUCUCAACUAUGACACGCAAAACGCGUGCUCCGUUGAAUGGAGUUUAUCAUG

Variants of B1 are the subject of this data set. The data set is described as follows: polymerase ribozyme fitness, log enrichment relative to wild type (log ratio); higher = more active; in vitro selection for triplet polymerase activity. The gist of the method:
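Only genotypes with ≥10 input reads and ≥1 read per output were kept after Illumina sequencing of input and output libraries. These libraries were PCR-built, transcribed mutants of each subunit of a heterodimeric triplet polymerase ribozyme, each put through one triplicate in vitro selection round with frozen incubation at −7 °C, gel excision of extended constructs, streptavidin-bead capture and RT-PCR. Fitness is a logarithmic ratio of genotype enrichment to wild-type enrichment, from inverse-variance-weighted replicate averages, with the logarithm in base 2.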
On to G50U G83A U146C A147C, for which the “polymerase ribozyme fitness (log ratio)” value is -2.91.
Consider G50C U53C G83A C95G, for which the “polymerase ribozyme fitness (log ratio)” value was at most -4.2.
For the variant G50C U53A, the “polymerase ribozyme fitness (log ratio)” value was -3.26.
In the case of G50U G83U G128C, the “polymerase ribozyme fitness (log ratio)” value was -3.62.
With A49U U55A, the “polymerase ribozyme fitness (log ratio)” value is -1.02.
Take G50C G86U: the “polymerase ribozyme fitness (log ratio)” value was -3.89.
With G50C G86C, the “polymerase ribozyme fitness (log ratio)” value is at most -4.2.
Under A49U G50A A60C stands -2.62.
On to G50A C54A C87A G128A, for which the “polymerase ribozyme fitness (log ratio)” value is at most -4.2.
Under G50A U56A C57A C114G G133A stands -3.53; under C51G G92C, -2.71.
The result for A52G C54U reads 0.381; that for C51U G67A U77G C116G G126A C129A, at most -4.2; that for G50A U53A, -1.59.
For G50U C54U G81C C85A G117A, the “polymerase ribozyme fitness (log ratio)” value is -0.79.
As for A52G A66C G67C G141C, the “polymerase ribozyme fitness (log ratio)” value is at most -4.2.
Consider A49U U82G C105U C116U U145A, for which the “polymerase ribozyme fitness (log ratio)” value is -2.58.
Take G50U C85A A97U G140A: the “polymerase ribozyme fitness (log ratio)” value is at most -4.2.
In the case of A52G C85G G141A, the “polymerase ribozyme fitness (log ratio)” value is -1.37.
In the case of G50C A73C C95G C105G, the “polymerase ribozyme fitness (log ratio)” value is at most -4.2.
For the variant G50A A52C C57G C93U, the “polymerase ribozyme fitness (log ratio)” value is -3.12.
Regarding G50A A73U C93G G100U A107G U109C A142C A150U, the “polymerase ribozyme fitness (log ratio)” value was at most -4.2.
Turning to A52G C75U, the “polymerase ribozyme fitness (log ratio)” value is -0.679.
As to G50U C57U, the “polymerase ribozyme fitness (log ratio)” value is 1.
Under A52G C93A G140A stands at most -4.2; under C51U G59C, 0.723.
Consider G50C G86A U102A G143U, for which the “polymerase ribozyme fitness (log ratio)” value was at most -4.2.
Take A49U A52C A89G C95U: the “polymerase ribozyme fitness (log ratio)” value was -2.69.
Take G50U A122G U135A: the “polymerase ribozyme fitness (log ratio)” value was -0.743.
Under G50U G62U U101C stands -1; under A52C C93U, -2.33.
With G50C C116A U144A C149G, the “polymerase ribozyme fitness (log ratio)” value was at most -4.2.
The result for A52G C57G C76U G92U U148A reads -4.19.
On to C51G G81U C96U, for which the “polymerase ribozyme fitness (log ratio)” value was -1.16.
As for C51U U55A C96A, the “polymerase ribozyme fitness (log ratio)” value was -1.8.
Consider G50A C72U C85A, for which the “polymerase ribozyme fitness (log ratio)” value is -2.69.
Under C51U A110G stands -3.47; under G50A G86C C99U U104G C116G, at most -4.2; under C51U U55G A98U A115G, -3.09.
As for G50C G83A C87U G141U, the “polymerase ribozyme fitness (log ratio)” value is at most -4.2.
Consider A49G U104C C149G, for which the “polymerase ribozyme fitness (log ratio)” value is at most -4.2.
As for A52G C85U G92A C96A, the “polymerase ribozyme fitness (log ratio)” value is at most -4.2.
Regarding A52G C85A A89G, the “polymerase ribozyme fitness (log ratio)” value was -3.57.
As for G50A U134C, the “polymerase ribozyme fitness (log ratio)” value is -1.29.
In the case of G50C C57A A64U U78G, the “polymerase ribozyme fitness (log ratio)” value was at most -4.2.
Turning to G50C G83C U135A, the “polymerase ribozyme fitness (log ratio)” value was at most -4.2.
The result for A52G C96G reads -2.13; that for C51U C57G G58C C69A A98U C105G C116U A150U, at most -4.2.
As to C51U C87A G141U, the “polymerase ribozyme fitness (log ratio)” value was at most -4.2.
Under G50U A107U stands -3.73; under C51A G58C U111A, at most -4.2.
On to G50A G68A C95A G140C, for which the “polymerase ribozyme fitness (log ratio)” value is at most -4.2.
The result for G50A A66G C85A A106G G140C reads at most -4.2; that for G50C C57U U82G A121G G143C, at most -4.2.
As to C51U G59A C95A C125G, the “polymerase ribozyme fitness (log ratio)” value is -1.53.
With A49U G50U U53G A106U A122G, the “polymerase ribozyme fitness (log ratio)” value was at most -4.2.
As for G50U C95U, the “polymerase ribozyme fitness (log ratio)” value is -0.241.
Regarding A49U C75U G80A C96U A97C U145A U146G U148G, the “polymerase ribozyme fitness (log ratio)” value is at most -4.2.
A52C U102G A147U: the “polymerase ribozyme fitness (log ratio)” value was -3.59.
G50A A52U C76G A150G: the “polymerase ribozyme fitness (log ratio)” value was at most -4.2.
The result for G50A C116U reads -1.34; that for G50U A52G C99G, -2.55.
With G50A G71C A91U A150U, the “polymerase ribozyme fitness (log ratio)” value is at most -4.2.
For C51U A98U, the “polymerase ribozyme fitness (log ratio)” value is -0.337.
For the variant A52C U61A G88U C96U G136U, the “polymerase ribozyme fitness (log ratio)” value is at most -4.2.
As for C51A U101C C123A, the “polymerase ribozyme fitness (log ratio)” value is -2.09.
For C51G U90G, the “polymerase ribozyme fitness (log ratio)” value is at most -4.2.
The result for G50C G94U A121U G128U reads at most -4.2.
Consider G50C C96G, for which the “polymerase ribozyme fitness (log ratio)” value is -2.66.
Turning to G50C C96U, the “polymerase ribozyme fitness (log ratio)” value is -2.14.
The result for A52G C54U C93A reads -1.98; that for C51G G81C C85G C123U G143A, -3.82; that for G50A C118A A119U G143A, -2.71.
For C51A C54U C85U, the “polymerase ribozyme fitness (log ratio)” value was -1.93.
For C51G G94A, the “polymerase ribozyme fitness (log ratio)” value is -1.79.
Turning to A52G C85A, the “polymerase ribozyme fitness (log ratio)” value was -2.19.
On to A52C G94C, for which the “polymerase ribozyme fitness (log ratio)” value was -2.26.
In the case of G50C C75G C85A C132U, the “polymerase ribozyme fitness (log ratio)” value was at most -4.2.
As to C51U U56G C75U U134C, the “polymerase ribozyme fitness (log ratio)” value was -2.81.
Take A52C G84U C125U: the “polymerase ribozyme fitness (log ratio)” value is -2.64.
As to G50A G141A, the “polymerase ribozyme fitness (log ratio)” value was -0.962.
As for A52C U55A, the “polymerase ribozyme fitness (log ratio)” value was -1.69.
Take C51A C76G G88C C103A C125A G140A: the “polymerase ribozyme fitness (log ratio)” value is at most -4.2.
In the case of A49U U56G C57U C96U U102G A147G, the “polymerase ribozyme fitness (log ratio)” value was -3.99.
